Results taken from patent US20220340682A1 (Sanofi, published 2022).

T1: hCEACAM5, human CEACAM5 ECD (35-685) (human, UniProt P06731 35-685)
T1 construct: produced in HEK293; also called human CEACAM5 protein; human CEACAM5 extracellular domain
T1 sequence: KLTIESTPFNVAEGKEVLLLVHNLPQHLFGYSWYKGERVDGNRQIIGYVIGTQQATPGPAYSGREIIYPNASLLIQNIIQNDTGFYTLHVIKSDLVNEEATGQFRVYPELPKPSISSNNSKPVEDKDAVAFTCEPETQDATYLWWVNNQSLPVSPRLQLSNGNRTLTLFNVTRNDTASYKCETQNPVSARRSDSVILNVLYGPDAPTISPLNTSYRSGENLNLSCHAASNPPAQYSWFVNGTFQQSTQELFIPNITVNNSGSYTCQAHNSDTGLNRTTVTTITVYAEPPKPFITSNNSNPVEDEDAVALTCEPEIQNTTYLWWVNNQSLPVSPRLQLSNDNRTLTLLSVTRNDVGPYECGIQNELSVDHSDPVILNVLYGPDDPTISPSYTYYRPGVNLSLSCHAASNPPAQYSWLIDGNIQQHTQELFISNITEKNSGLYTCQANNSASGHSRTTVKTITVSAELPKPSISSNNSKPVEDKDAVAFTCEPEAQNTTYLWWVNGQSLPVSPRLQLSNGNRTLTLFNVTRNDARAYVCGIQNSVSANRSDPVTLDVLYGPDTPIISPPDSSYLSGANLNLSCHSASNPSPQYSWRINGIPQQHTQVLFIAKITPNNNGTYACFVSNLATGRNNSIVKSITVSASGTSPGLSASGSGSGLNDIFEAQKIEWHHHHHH

T2: cCEACAM5, M. fascicularis CEACAM5 ECD (35-688) (Macaca fascicularis)
T2 construct: ECD followed by a 24 amino acid extension containing a His-Tag; also called cynomolgus CEACAM5; monkey CEACAM5
T2 chain: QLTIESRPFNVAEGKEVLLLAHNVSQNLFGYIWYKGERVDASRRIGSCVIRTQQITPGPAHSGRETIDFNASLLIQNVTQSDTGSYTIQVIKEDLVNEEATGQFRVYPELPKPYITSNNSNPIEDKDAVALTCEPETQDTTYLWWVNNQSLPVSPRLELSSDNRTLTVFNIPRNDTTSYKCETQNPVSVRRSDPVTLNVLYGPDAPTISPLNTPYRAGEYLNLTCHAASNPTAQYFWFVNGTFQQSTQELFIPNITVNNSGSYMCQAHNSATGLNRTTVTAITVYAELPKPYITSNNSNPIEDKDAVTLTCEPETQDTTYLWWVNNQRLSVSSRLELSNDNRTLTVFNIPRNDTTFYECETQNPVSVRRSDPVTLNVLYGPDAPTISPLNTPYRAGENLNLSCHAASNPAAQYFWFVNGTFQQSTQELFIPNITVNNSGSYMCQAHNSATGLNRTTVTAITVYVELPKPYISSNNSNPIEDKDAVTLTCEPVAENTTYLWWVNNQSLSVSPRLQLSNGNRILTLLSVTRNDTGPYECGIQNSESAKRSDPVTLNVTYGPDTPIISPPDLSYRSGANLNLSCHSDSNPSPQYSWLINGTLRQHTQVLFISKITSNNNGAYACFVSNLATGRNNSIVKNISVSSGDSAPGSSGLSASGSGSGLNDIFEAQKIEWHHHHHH

T3: hCEACAM7, human CEACAM7 ECD (36-248) (human)
T3 construct: With 24 amino acid extension containing a His-Tag
T3 chain: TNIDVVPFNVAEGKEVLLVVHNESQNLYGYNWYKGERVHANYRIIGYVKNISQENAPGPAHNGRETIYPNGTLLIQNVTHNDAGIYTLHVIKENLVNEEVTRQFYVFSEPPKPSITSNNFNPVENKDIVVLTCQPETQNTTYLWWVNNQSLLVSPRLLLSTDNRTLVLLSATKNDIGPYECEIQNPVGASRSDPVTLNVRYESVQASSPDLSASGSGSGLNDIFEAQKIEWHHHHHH

T4: hCEACAM8, human CEACAM8 ECD (35-332) (human, UniProt P31997 35-332)
T4 construct: With 24 amino acid extension containing a His-Tag
T4 sequence: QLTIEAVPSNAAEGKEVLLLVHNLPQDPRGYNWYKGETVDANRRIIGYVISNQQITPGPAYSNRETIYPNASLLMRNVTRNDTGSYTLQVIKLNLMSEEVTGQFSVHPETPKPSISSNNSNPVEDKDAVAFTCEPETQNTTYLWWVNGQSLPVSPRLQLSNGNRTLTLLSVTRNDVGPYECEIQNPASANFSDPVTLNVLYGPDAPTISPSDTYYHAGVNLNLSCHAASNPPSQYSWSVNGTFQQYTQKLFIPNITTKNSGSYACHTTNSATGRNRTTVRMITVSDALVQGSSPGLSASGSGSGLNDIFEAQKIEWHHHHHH


How the values were obtained:
[1] = target: T1, hCEACAM5, human CEACAM5 ECD (35-685); test: ELISA, coated CEACAM5
Protocol: (§1) All CEACAM5-specific mAbs were assessed for their ability to bind human and primate CEACAM5 protein by ELISA. Plates were coated with human or primate CEACAM5 protein, anti-hCEACAM5 mAbs were added to the plate and detected with rabbit anti-mouse IgG conjugated with horseradish peroxidase (Sigma; # A9044). The antibody binding was visualized by adding TMB-H2O2 buffer and read at a wavelength of 450 nm.

[2] = target: T2, cCEACAM5, M. fascicularis CEACAM5 ECD …; test: ELISA, coated CEACAM5
Protocol: as §1

[3] = target: T1, hCEACAM5, human CEACAM5 ECD (35-685); test: ELISA
[4] = target: T3, hCEACAM7, human CEACAM7 ECD (36-248); test: ELISA
[5] = target: T4, hCEACAM8, human CEACAM8 ECD (35-332); test: ELISA

Row | EC50 [1] | EC50 [2] | Ratio c/h (EC50 on cCEACAM5 against EC50 on hCEACAM5) [2] | percentage of binding compared to full binding with human CEACAM5 [3] | percentage of binding compared to full binding with human CEACAM5 [4] | percentage of binding compared to full binding with human CEACAM5 [5] | Binder
1 | 0.53 nM | 1.18 nM | 2.2 |  |  |  | antibody MAb1 (antibody, IgG1, V domains shown) VH: EVMLVESGGGLVKPGGSLKLSCAASGFTFSSYAMSWVRQTPEKRLEWVATISSGGSYIYYLDSVKGRFTISRDNAKNTLYLQMSSLRSEDTAMYYCARPAYYGNPAMDYWGQGTSVTVSS VL: DILMTQSQKFMSTSVGDRVSVTCKASQNVGTNVAWYQQKPGQSPKPLIYSASYRYSGVPDRFTGSGSGTDFTLTISNVQSEDLAEYFCQQYNSYPLYTFGGGTKLEIK
2 | 0.36 nM | 3.72 nM | 10 |  |  |  | antibody MAb3 (antibody, IgG1, V domains shown, Murine monoclonal from hybridoma, IgG1, kappa) VH: EVKLVESGGGLVKPGGSLTLPCAASGFTFSRYAMSWVRQTPEKRLEWVASISSGGDTYYPDSVKGRFTVSRDNARNILFLQMSSLRSEDTGMYYCARVNYYDSSFLDWWGQGTTLTVSS VL: DIVMTQSQRFMSTLEGDRVSVTCKASQNVGTNVAWYQQKPGQSPKALIYSASYRYSGVPDRFTGSGSGTDFTLTISNVQSEDLAEYFCQQYNNYPLYTFGGGTKLEIK
3 | 0.08 nM | 0.05 nM | 0.6 |  |  |  | antibody MAb4 (antibody, IgG1, V domains shown, Murine monoclonal from hybridoma, IgG1, kappa) VH: EVQLVESGGGLVKPGGSLKLSCAASGFTFSSYDMSWVRQTPEKRLEWVAFISSYGGRTYYADTVKGRFTISRDNAKNTLYLQMSSLKSEDTAMFYCAAHYFGTSGPFAYWGQGTLVTVSA VL: DIQMTQSPASLSASVGETVTITCRASENIYSYFAWYQQKQGKSPQLLVYNAKILAEGVPSRFSGSGSGTQFSLKINSLQPEDFGTYYCQHHYGIPFTFGSGTKLELK
4 | 0.4 nM | 0.45 nM | 1.1 |  |  |  | antibody MAb5 (antibody, IgG1, V domains shown, Murine monoclonal from hybridoma, IgG1, kappa) VH: ELQLVESGGVLVKPGGSLKLSCAASGFAFSSYDMSWVRQTPEKRLEWVTYINSGGGITYYPDTVKGRFTISRDNARNTLYLQMSSLKSEDTAIYYCTAHYFGSSGPFAYWGQGTLVTVSA VL: DIQMTQSPASLSASVGETVTITCRASENIYSYLAWYQQKQGKSPQLLVYNAKTLTEGVPSRFSGSGSGTQFSLKINSLQPEDFGSYYCQHHYGTPFTFGSGTKLEIK
5 |  |  |  | 100% | 0.3% | 0.6% | huMAb2-3 (antibody, human IgG1, kappa, V domains shown, Humanized MAb2, human IgG1 / Ckappa; also called MAb2_VL1cVH1a-IgG1) VH: EVQLQESGPGLVKPGGSLSLSCAASGFVFSSYDMSWVRQTPERGLEWVAYISSGGGITYAPSTVKGRFTVSRDNAKNTLYLQMNSLTSEDTAVYYCAAHYFGSSGPFAYWGQGTLVTVSS VL: DIQMTQSPASLSASVGDRVTITCRASENIFSYLAWYQQKPGKSPKLLVYNTRTLAEGVPSRFSGSGSGTDFSLTISSLQPEDFATYYCQHHYGTPFTFGSGTKLEIKR
6 |  |  |  | 100% | 0.3% | 0.9% | huMAb2-1 (antibody, V domains shown, Humanized MAb2 (VL1 + VH1) fused to human IgG1 and human Ckappa constant domains; also called MAb2_VL1VH1-IgG1; MAb2VL1VH1-IgG1) VH: EVQLQESGPGLVKPGGSLSLSCAASGFVFSSYDMSWVRQTPERRLEWVAYISSGGGITYFPSTVKGRFTVSRDNAKNTLYLQMNSLTSEDTAIYYCAAHYFGSSGPFAYWGQGTLVTVSA VL: DIQMTQSPASLSASVGDTVTITCRASENIFSYLAWYQQKPGKSPKLLVYNTKTLAEGVPSRFSGSGSGTQFSLTISSLQPEDFGSYYCQHHYGTPFTFGSGTKLEIK
7 |  |  |  | 100% | 0.3% | 0.5% | huMAb2-2 (antibody, V domains shown, Humanized MAb2 (VL1a + VH1a) fused to human IgG1 and human Ckappa constant domains; also called MAb2_VL1aVH1a-IgG1; MA2_VL1aVH1a-IgG1) VH: EVQLQESGPGLVKPGGSLSLSCAASGFVFSSYDMSWVRQTPERGLEWVAYISSGGGITYAPSTVKGRFTVSRDNAKNTLYLQMNSLTSEDTAVYYCAAHYFGSSGPFAYWGQGTLVTVSS VL: DIQMTQSPASLSASVGDRVTITCRASENIFSYLAWYQQKPGKSPKLLVYNTKTLAEGVPSRFSGSGSGTDFSLTISSLQPEDFATYYCQHHYGTPFTFGSGTKLEIK
8 |  |  |  | 100% | 0.3% | 0.6% | chMAb2 (antibody, human IgG1, kappa, V domains shown, Chimeric, human IgG1, Ck isotype; also called MAb2-IgG1; chimeric MAb2) VH: EVQLQESGGVLVKPGGSLKLSCAASGFVFSSYDMSWVRQTPEKRLEWVAYISSGGGITYFPDTVQGRFTVSRDNAKNTLYLQMNSLKSEDTAIYYCAAHYFGSSGPFAYWGQGTLVTVSA VL: DIQMTQSPASLSASVGETVTITCRASENIFSYLAWYQQKQGKSPQLLVYNTKTLAEGVPSRFSGSGSGTQFSLKINSLQPEDFGSYYCQHHYGTPFTFGSGTKLEIKR
9 |  |  |  | 100% | 0.3% | 1.4% | huMAb2-4 (antibody, human IgG1, kappa, V domains shown, Humanized MAb2, human IgG1 / Ckappa; also called MAb2_VL1d VH1-IgG1; MAb2_VL1dVH1-IgG1) VH: EVQLQESGPGLVKPGGSLSLSCAASGFVFSSYDMSWVRQTPERRLEWVAYISSGGGITYFPSTVKGRFTVSRDNAKNTLYLQMNSLTSEDTAIYYCAAHYFGSSGPFAYWGQGTLVTVSA VL: DIQMTQSPASLSASVGDTVTITCRASENIFSYLAWYQQKPGKSPKLLVYNTRTLAEGVPSRFSGSGSGTQFSLTISSLQPEDFGSYYCQHHYGTPFTFGSGTKLEIKR
